Data taken from patent US20260116937A1 (published 2026).

Columns and labels:
human C3b [1] = biological target: T1, human C3b (human, UniProt P01024 749-1663; P01024 23-667); assay: ELISA
human C3b [2] = biological target: T1, human C3b; assay: ELISA; culture supernatant
human C3b [3] = biological target: T1, human C3b; assay: ELISA; remark: listed apart in the source

T1 sequence (P01024 749-1663, chain 1 of 2): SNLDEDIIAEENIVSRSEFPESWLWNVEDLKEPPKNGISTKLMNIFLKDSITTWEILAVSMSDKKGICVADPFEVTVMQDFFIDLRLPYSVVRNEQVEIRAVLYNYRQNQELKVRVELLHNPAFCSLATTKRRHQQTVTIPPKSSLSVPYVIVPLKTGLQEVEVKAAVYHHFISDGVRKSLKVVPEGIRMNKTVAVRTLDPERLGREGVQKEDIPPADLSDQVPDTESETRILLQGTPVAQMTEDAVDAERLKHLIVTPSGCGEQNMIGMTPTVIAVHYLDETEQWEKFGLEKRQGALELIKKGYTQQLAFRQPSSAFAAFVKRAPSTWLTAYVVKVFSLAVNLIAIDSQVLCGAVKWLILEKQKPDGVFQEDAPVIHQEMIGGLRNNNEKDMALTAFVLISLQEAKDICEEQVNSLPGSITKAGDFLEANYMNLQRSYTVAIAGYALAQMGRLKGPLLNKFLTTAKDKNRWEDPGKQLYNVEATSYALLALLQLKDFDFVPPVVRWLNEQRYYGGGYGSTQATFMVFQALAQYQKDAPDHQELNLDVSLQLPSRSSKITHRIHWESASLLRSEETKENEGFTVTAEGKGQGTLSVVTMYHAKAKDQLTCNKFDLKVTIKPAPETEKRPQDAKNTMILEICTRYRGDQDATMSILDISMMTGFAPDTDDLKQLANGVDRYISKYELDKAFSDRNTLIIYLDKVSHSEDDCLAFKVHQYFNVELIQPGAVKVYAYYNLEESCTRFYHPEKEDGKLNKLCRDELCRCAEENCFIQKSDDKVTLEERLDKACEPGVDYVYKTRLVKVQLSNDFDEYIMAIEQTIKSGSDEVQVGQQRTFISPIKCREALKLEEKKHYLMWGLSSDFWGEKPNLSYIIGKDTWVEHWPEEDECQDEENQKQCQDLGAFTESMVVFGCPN
T1 sequence (P01024 23-667, chain 2 of 2): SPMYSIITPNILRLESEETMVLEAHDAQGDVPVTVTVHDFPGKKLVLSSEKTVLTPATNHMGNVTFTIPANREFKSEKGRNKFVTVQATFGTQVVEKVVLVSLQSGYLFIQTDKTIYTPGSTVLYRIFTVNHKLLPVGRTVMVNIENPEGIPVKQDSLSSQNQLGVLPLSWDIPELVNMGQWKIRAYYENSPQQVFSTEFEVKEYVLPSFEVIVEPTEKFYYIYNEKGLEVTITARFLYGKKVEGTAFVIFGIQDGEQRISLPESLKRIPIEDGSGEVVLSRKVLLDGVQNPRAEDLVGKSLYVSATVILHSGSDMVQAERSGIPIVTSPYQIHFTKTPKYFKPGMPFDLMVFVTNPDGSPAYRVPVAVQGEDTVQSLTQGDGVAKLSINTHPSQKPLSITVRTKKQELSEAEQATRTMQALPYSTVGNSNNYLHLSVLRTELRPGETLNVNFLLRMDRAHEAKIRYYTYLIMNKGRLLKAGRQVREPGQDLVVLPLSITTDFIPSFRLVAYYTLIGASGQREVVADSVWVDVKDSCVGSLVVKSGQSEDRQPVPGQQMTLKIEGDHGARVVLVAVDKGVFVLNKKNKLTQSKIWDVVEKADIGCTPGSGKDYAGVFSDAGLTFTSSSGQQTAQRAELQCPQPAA

Row | EC50 (human C3b [1]) [nM] | EC50 (human C3b [2]) [nM] | EC50 (human C3b [3]) [nM] | Binder
1 | 0.4 |  |  | Var108 (glycoengineered variant of FHL-1, G442N in the Var004 framework) (designed binder, N-linked glycosylation at the engineered NxS/T motif (G442N), >90% glycosylated monomer) EDCNELPPRRNTEILTGSWSDQTYPEGTQAIYKCRPGYRSLGNVIMVCRKGEWVALNPLRKCQKRPCGHPGDTPFGTFTLTGGNVFEYGVKAVYTCNEGYQLLGEINYRECDTDGWTNDIPICEVVKCLPVTAPENGKIVSSAMEPDREYHFGQAVRFVCNSGYKIEGDEEMHCSDDGFWSKEKPKCVEISCKSPDVINGSPISQKIIYKENERFQYKCNMGYEYSERGDAVCTESGWRPLPSCEEKSCDNPYIPNGDYSPLRIKHRTGDEITYQCRNGFYPATRGNTAKCTSTGWIPAPRCTLKPCDYPDIKHGGLYHENMRRPYFPVAVGKYYSYYCDEHFETPSGSYWDHIHCTQDGWSPAVPCLRKCYFPYLENGYNQNYGRKFVQGKSIDVACHPGYALPKAQTTVTCMENGWSPTPRCIRVSGGGGSGGGGSGGGNSTLKPCDYPDIKHGGLYHENMRRPYFPVAVGKYYSYYCDEHFETPSGSYWDHIHCTQDGWSPAVPCLRKCYFPYLENGYNQNYGRKFVQGKSIDVACHPGYALPKAQTTVTCMENGWSPTPRCIRVSFTL
2 |  | 2.5 |  | Var004 (engineered variant of FHL-1) (designed binder) EDCNELPPRRNTEILTGSWSDQTYPEGTQAIYKCRPGYRSLGNVIMVCRKGEWVALNPLRKCQKRPCGHPGDTPFGTFTLTGGNVFEYGVKAVYTCNEGYQLLGEINYRECDTDGWTNDIPICEVVKCLPVTAPENGKIVSSAMEPDREYHFGQAVRFVCNSGYKIEGDEEMHCSDDGFWSKEKPKCVEISCKSPDVINGSPISQKIIYKENERFQYKCNMGYEYSERGDAVCTESGWRPLPSCEEKSCDNPYIPNGDYSPLRIKHRTGDEITYQCRNGFYPATRGNTAKCTSTGWIPAPRCTLKPCDYPDIKHGGLYHENMRRPYFPVAVGKYYSYYCDEHFETPSGSYWDHIHCTQDGWSPAVPCLRKCYFPYLENGYNQNYGRKFVQGKSIDVACHPGYALPKAQTTVTCMENGWSPTPRCIRVSGGGGSGGGGSGGGGSTLKPCDYPDIKHGGLYHENMRRPYFPVAVGKYYSYYCDEHFETPSGSYWDHIHCTQDGWSPAVPCLRKCYFPYLENGYNQNYGRKFVQGKSIDVACHPGYALPKAQTTVTCMENGWSPTPRCIRVSFTL
3 | 4.5 |  | 1.2 | complement factor H (CFH) (other) EDCNELPPRRNTEILTGSWSDQTYPEGTQAIYKCRPGYRSLGNVIMVCRKGEWVALNPLRKCQKRPCGHPGDTPFGTFTLTGGNVFEYGVKAVYTCNEGYQLLGEINYRECDTDGWTNDIPICEVVKCLPVTAPENGKIVSSAMEPDREYHFGQAVRFVCNSGYKIEGDEEMHCSDDGFWSKEKPKCVEISCKSPDVINGSPISQKIIYKENERFQYKCNMGYEYSERGDAVCTESGWRPLPSCEEKSCDNPYIPNGDYSPLRIKHRTGDEITYQCRNGFYPATRGNTAKCTSTGWIPAPRCTLKPCDYPDIKHGGLYHENMRRPYFPVAVGKYYSYYCDEHFETPSGSYWDHIHCTQDGWSPAVPCLRKCYFPYLENGYNQNYGRKFVQGKSIDVACHPGYALPKAQTTVTCMENGWSPTPRCIRVKTCSKSSIDIENGFISESQYTYALKEKAKYQCKLGYVTADGETSGSITCGKDGWSAQPTCIKSCDIPVFMNARTKNDFTWFKLNDTLDYECHDGYESNTGSTTGSIVCGYNGWSDLPICYERECELPKIDVHLVPDRKKDQYKVGEVLKFSCKPGFTIVGPNSVQCYHFGLSPDLPICKEQVQSCGPPPELLNGNVKEKTKEEYGHSEVVEYYCNPRFLMKGPNKIQCVDGEWTTLPVCIVEESTCGDIPELEHGWAQLSSPPYYYGDSVEFNCSESFTMIGHRSITCIHGVWTQLPQCVAIDKLKKCKSSNLIILEEHLKNKKEFDHNSNIRYRCRGKEGWIHTVCINGRWDPEVNCSMAQIQLCPPPPQIPNSHNMTTTLNYRDGEKVSVLCQENYLIQEGEEITCKDGRWQSIPLCVEKIPCSQPPQIEHGTINSSRSSQESYAHGTKLSYTCEGGFRISEENETTCYMGKWSSPPQCEGLPCKSPPEISHGVVAHMSDSYQYGEEVTYKCFEGFGIDGPAIAKCLGEKWSHPPSCIKTDCLSLPSFENAIPMGEKKDVYKAGEQVTYTCATYYKMDGASNVTCINSRWTGRPTCRDTSCVNPPTVQNAYIVSRQMSKYPSGERVRYQCRSPYEMFGDEEVMCLNGNWTEPPQCKDSTGKCGPPPPIDNGDITSFPLSVYAPASSVEYQCQNLYQLEGNKRITCRNGQWSEPPKCLHPCVISREIMENYNIALRWTAKQKLYSRTGESVEFVCKRGYRLSSRSHTLRTTCWDGKLEYPTCAKR
4 | 7.4 |  |  | Factor H-like protein 1 (FHL-1) (other) EDCNELPPRRNTEILTGSWSDQTYPEGTQAIYKCRPGYRSLGNVIMVCRKGEWVALNPLRKCQKRPCGHPGDTPFGTFTLTGGNVFEYGVKAVYTCNEGYQLLGEINYRECDTDGWTNDIPICEVVKCLPVTAPENGKIVSSAMEPDREYHFGQAVRFVCNSGYKIEGDEEMHCSDDGFWSKEKPKCVEISCKSPDVINGSPISQKIIYKENERFQYKCNMGYEYSERGDAVCTESGWRPLPSCEEKSCDNPYIPNGDYSPLRIKHRTGDEITYQCRNGFYPATRGNTAKCTSTGWIPAPRCTLKPCDYPDIKHGGLYHENMRRPYFPVAVGKYYSYYCDEHFETPSGSYWDHIHCTQDGWSPAVPCLRKCYFPYLENGYNQNYGRKFVQGKSIDVACHPGYALPKAQTTVTCMENGWSPTPRCIRVSFTL
